Measurements reported in patent US8394929B2, “Nogo receptor-mediated blockade of axonal growth” (Yale University, priority 2000, dated 2013).

How the values were obtained:
[1] = system: GST-Nogo-induced growth cone collapse; test: Blockade of Nogo-induced growth cone collapse in chick DRG cultures; format: cell-based; details: GST-Nogo / Nogo-66 as collapsing agent
Procedure: (§1) For all experiments involving cell culture, the following methods were employed. The culture of embryonic chick E10 and E12 dorsal root ganglion explants and dissociated neurons utilized methods described for E7 dorsal root ganglion cultures (Takahashi et al., (1998) Nature Neurosci. 1, 487-493; Takahashi et al., (1999) Cell 99, 59-69; Goshima et al., (1995) Nature 376, 509-514; Jin & Strittmatter, (1997) J. Neurosci. […]). NGF-differentiated PC12 cells were cultured as described (Strittmatter et al., (1994) J. Neurosci. 14, 2327-2338). Embryonic spinal cord explants (rat E10 or chick E5) were cultured for 7-14 days in the presence of PDGF-AA to induce differentiation of some cells into mature oligodendrocytes (Vartanian et al., (1999) Proc. Natl. Acad. Sci. USA 96, 731-735). The procedure for growth cone collapse assays is identical to that for analysis of Sema3A-induced growth cone collapse (Takahashi et al., (1998) Nature Neurosci. 1, 487-493; Takahashi et al., (1999) Cell 99, 59-69; Goshima et al., (1995) Nature 376, 509-514; Jin & Strittmatter, (1997) J. Neurosci. 17, 6256-6263). The method for analysis of total neurite outgrowth has also been described (Goshima et al., (1995) Nature 376, 509-514; Jin & Strittmatter, (1997) J. Neurosci. 17, 6256-6263; Strittmatter et al., (1994) J. Neurosci. 14, 2327-2338). In outgrowth assays, proteins and peptides were added one hour after plating to minimize any effect on the total number of adherent cells. To test the effect of substrate-bound GST or GST-Nogo, the protein solutions were dried on poly-L-lysine coated glass, washed and then coated with laminin. For E12 cultures, the neuronal identity of cells was verified by staining with anti-neurofilament antibodies (2H3, Develomental Studies Hybridoma Bank) and neurites were traced by observation of rhodamine-phalloidin staining of F-actin in processes.
In the growth cone collapse assay, the response to Nogo was measured in the presence of various potential antagonistic peptides. […] This blockade supports the hypothesis that Nogo is a primary inhibitory component of CNS myelin.
For further testing, a synthetic peptide containing amino acid residues #1055-1094 of hNgR, acetylated at the […] was used [hereinafter “Peptide 140”]. […] Antagonist of Nogo-66 inhibitory activity may act by competing for, and thereby blocking NgR binding sites. To determine the antagonistic activity of Peptide 140, the above synthetic form of the peptide was added to E12 chick DRG explant cultures approximately 10 min before application of various concentrations of GST-NogoA (residues #1055-1120), TPA or Sema3A. 30 min later, cultures were fixed and growth cone collapse was assessed following staining with rhodamine-phalloidin.

[2] = molecular target: T1, mouse NgR (Mus musculus, UniProt Q99PI8); test: AP-fusion protein binding to COS-7 cells expressing mouse NgR
T1 construct: expressed in transfected cells; host or cells: COS-7
T1 sequence (Q99PI8 27-473): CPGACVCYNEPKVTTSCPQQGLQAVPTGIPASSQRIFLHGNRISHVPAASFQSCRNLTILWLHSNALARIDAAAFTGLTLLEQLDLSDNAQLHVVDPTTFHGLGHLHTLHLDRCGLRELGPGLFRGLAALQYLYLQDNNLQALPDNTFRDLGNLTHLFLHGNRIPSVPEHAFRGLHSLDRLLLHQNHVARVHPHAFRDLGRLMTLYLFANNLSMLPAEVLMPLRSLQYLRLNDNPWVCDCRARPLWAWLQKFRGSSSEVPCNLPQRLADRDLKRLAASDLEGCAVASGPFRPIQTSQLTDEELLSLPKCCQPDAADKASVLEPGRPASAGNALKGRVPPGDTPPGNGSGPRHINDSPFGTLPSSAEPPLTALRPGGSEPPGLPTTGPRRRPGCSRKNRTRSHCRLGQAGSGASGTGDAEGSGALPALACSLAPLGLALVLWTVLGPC
Procedure: To determine if AP-fused deletion mutants of Nogo-66 bind mouse NgR (“mNgR”), COS-7 cells were transfected with a plasmid encoding the mouse NgR sequence ligated into pcDNA3.1. 48 hours after transfection, cells were washed with HBH (Hanks balanced salt solution containing 20 mM sodium Hepes, pH 7.05, and 1 mg ml^−1 bovine serum albumin) and then incubated with condition medium containing one of the AP-fusion proteins described above for 2 hours at 37° C. Cells were then washed, fixed, and left in HBH at 67° C. for 14-16 h to inactivate endogenous AP. AP-fusion protein binding to NgR expressing COS-7 cells was detected with the substrates NBT and BCIP (FIG. 13b).
To determine whether mNgR or mNgR deletion mutants bound to hNogo-A (1055-1120), wtNgR or mNgR deletion mutants were transfected into COS-7 cells. Forty-eight hours after the transfection, the transfected COS-7 cells were washed with hanks balanced salt solution containing 20 mM sodium HEPES, pH 7.05, and 1 mg/ml bovine serum albumin (BSA) [hereinafter “HBH”]. Cells were then incubated for 2 hours at 23° C. with a conditioned medium enriched with purified AP-hNogo-A (1055-1120) diluted in HBH. AP-fusion protein was detected as previously described for AP-Sema3A (Takahashi et al., Nature Neurosci. 1:487-493, 1998).

[3] = system: CNS myelin induced neurite outgrowth inhibition; test: Blockade of CNS myelin induced neurite outgrowth inhibition in chick DRG neurons; format: cell-based
Procedure: To determine the antagonistic activity of Peptide 140 against CNS myelin, the above synthetic peptide was added approximately 10 min before application of CNS myelin. 30 min later, cultures were fixed and growth cone collapse was assessed following staining with rhodamine-phalloidin. For neurite outgrowth assays, plastic chamber slide were coated with 100 μg ml^−1 poly-L-lysine, washed, and dried. 3 μl drops of PBS containing CNS myelin were spotted and dried. Slides were then rinsed and coated with 10 μg ml fs24^−1 laminin before addition of dissociated E12 chick DRGs. Peptide 140, or the scrambled version of Peptide 140, was added at the time of cell plating. Cultures were grown for 5-7 h after which neurite outgrowth was assessed.
Although the role of the GPI anchor may be to regulate NgR cellular compartmentalization, another possible role for the GPI linkage is to provide a NgR cleavage site. Cleaving NgR could serve to affect hNogo-A (1055-1120) signaling by rendering a neuron insensitive to hNogo-A (1055-1120) and by releasing soluble NgR that could then act on adjacent cells to modulate hNogo-A (1055-1120) signaling. To determine if soluble mNgR modulates hNogo-A (1055-1120)-dependent inhibition, a soluble mNgR was generated by inserting a truncated cDNA encoding mNgR residues 1-348 in frame with a myc-His carboxy tag into pcDNA3.1. The resulting plasmid expressing mNgREcto was transfected into HEK293T cells, and conditioned media containing mNgREcto protein was collected. To test the effect of mNgREcto on Nogo signaling, E13 dissociated DRGs were plated in the presence of hNogo-A (1055-1120) or myelin. The inhibitors were presented in either soluble or substrate-bound forms. For neurite outgrowth assays on hNogo-A (1055-1120) or myelin substrates, Permanox chamber slides were coated with 100μ, fs24 g ml^−1 poly-L-Lysine, washed, and then 3-μl drops of phosphate-buffered saline (hereinafter “PBS”) containing 0, 10, 50, or 150 ng of GST-hNogo-A (1055-1120) or myelin were spotted and dried. GST-hNogo-A (1055-1120) and myelin were prepared as previously described (GrandPre et al., supra; Fournier et al., J. Cell Biol. 149:411-421, 2000). After three PBS washes, slides were coated with 10 μg ml^−1 laminin. Laminin was then aspirated and dissociated E13 chick DRG neurons were added. After 6-8 hr of outgrowth, cultures were fixed and neurite outgrowth lengths were assessed. For blockade experiments with NgREcto, spots were incubated with HEK293T cell conditioned media or NgREcto-transfected-HEK293T cell conditioned media following for 1 hr following the laminin coating step and before the addition of dissociated neurons. […] Thus, soluble fragments of NgR might serve physiologically or pharmacologically to reduce GST-hNogo-A (1055-1120) inhibition of axonal regeneration.

[4] = system: GST-Nogo-66 inhibition of neurite outgrowth; test: Blockade of Nogo-induced inhibition of neurite outgrowth in chick DRG neurons; format: cell-based
Procedure: as §1
Peptide 140 was tested for its ability to neutralize neurite outgrowth inhibition caused by the addition of GST fused to residues #1055-1120 of hNogoA (designated Nogo-66 in FIG. 16e). Plastic chamber slides were coated with 100 μg ml^−1 poly-L-lysine, washed, and dried. 3 μl drops of PBS containing GST-hNogoA(residues #1055-1120) were spotted and dried. Slides were then rinsed and coated with 10 μg ml fs24^−1 laminin before addition of dissociated E12 chick DRGs. Peptide 140 was added at the time of cell plating. Cultures were grown for 5-7 h after which neurite outgrowth was assessed.
Although the role of the GPI anchor may be to regulate NgR cellular compartmentalization, another possible role for the GPI linkage is to provide a NgR cleavage site. Cleaving NgR could serve to affect hNogo-A (1055-1120) signaling by rendering a neuron insensitive to hNogo-A (1055-1120) and by releasing soluble NgR that could then act on adjacent cells to modulate hNogo-A (1055-1120) signaling. To determine if soluble mNgR modulates hNogo-A (1055-1120)-dependent inhibition, a soluble mNgR was generated by inserting a truncated cDNA encoding mNgR residues 1-348 in frame with a myc-His carboxy tag into pcDNA3.1. The resulting plasmid expressing mNgREcto was transfected into HEK293T cells, and conditioned media containing mNgREcto protein was collected. To test the effect of mNgREcto on Nogo signaling, E13 dissociated DRGs were plated in the presence of hNogo-A (1055-1120) or myelin. The inhibitors were presented in either soluble or substrate-bound forms. For neurite outgrowth assays on hNogo-A (1055-1120) or myelin substrates, Permanox chamber slides were coated with 100μ, fs24 g ml^−1 poly-L-Lysine, washed, and then 3-μl drops of phosphate-buffered saline (hereinafter “PBS”) containing 0, 10, 50, or 150 ng of GST-hNogo-A (1055-1120) or myelin were spotted and dried. GST-hNogo-A (1055-1120) and myelin were prepared as previously described (GrandPre et al., supra; Fournier et al., J. Cell Biol. 149:411-421, 2000). After three PBS washes, slides were coated with 10 μg ml^−1 laminin. […]

| binding to NgR expressing COS-7 cells (in words) [2] | Substance | blockade of Nogo-induced growth cone collapse (in words) [1] | further results |
| --- | --- | --- | --- |
| almost no binding | 1-30: peptides having residues 1-30 of hNogoA (#1055-1120) (RIYKGVIQAIQKSDEGHPFRAYLESEVAIS; UniProt Q9NQC3 1055-1084, looked up, fragment) [Peptide 1-30] |  |  |
| almost no binding | 1-31: peptides having residues 1-31 of hNogoA (#1055-1120) (RIYKGVIQAIQKSDEGHPFRAYLESEVAISE; UniProt Q9NQC3 1055-1085, looked up, fragment) [Peptide 1-31] |  |  |
| bind strongly and almost equivalently | 1-34: peptides having residues 1-34 of hNogoA (#1055-1120) (RIYKGVIQAIQKSDEGHPFRAYLESEVAISEELV; UniProt Q9NQC3 1055-1088, looked up, fragment) [Peptide 1-34] |  |  |
| bound mNgR well | 2-40: peptides having residues 2-40 of the hNogoA (#1055-1120) (IYKGVIQAIQKSDEGHPFRAYLESEVAISEELVQKYSNS; UniProt Q9NQC3 1056-1094, looked up, fragment) [Peptide 2-40] |  |  |
| no binding | 10-40: peptides having residues 10-40 of hNogoA (#1055-1120) (IQKSDEGHPFRAYLESEVAISEELVQKYSNS) [Peptide 10-40] |  |  |

The remaining lines, values behind:

| Substance | binding to NgR expressing COS-7 cells (in words) [2] | blockade of Nogo-induced growth cone collapse (in words) [1] | further results |
| --- | --- | --- | --- |
| 1-25: 25 amino acid peptide, residues 1-25 of the extracellular domain of Nogo (FRIYKGVIQAIQKSDEGHPFRAYLE) [Peptide 1-25] |  | blocking activity at μM concentrations |  |
| 1-33: peptides having residues 1-33 of hNogoA (#1055-1120) (RIYKGVIQAIQKSDEGHPFRAYLESEVAISEEL; UniProt Q9NQC3 1055-1087, looked up, fragment) [Peptide 1-33] |  |  | binding to mNgR, less compared to the strong binders ([2]; data not shown): approximately 50% |
| 11-35: 25 amino acid peptide, residues 11-35 of the extracellular domain of Nogo (IQKSDEGHPFRAYLESEVAISEELV) [Peptide 11-35] |  | blocking activity at μM concentrations |  |
| 21-45: 25 amino acid peptide, residues 21-45 of the extracellular domain of Nogo (RAYLESEVAISEELVQKYSNSALGH) [Peptide 21-45] |  | blocking activity at μM concentrations |  |
| acetyl-SYVKEYAPIFAGKSRGEIKYQSIEIHEAQVRSDELVQSLN-amide (Ac-SYVKEYAPIFAGKSRGEIKYQSIEIHEAQVRSDELVQSLN-NH2) [scrambled version of Peptide 140, reference compound] |  |  | blockade of CNS myelin induced neurite outgrowth inhibition (in words) [3]: ineffective; blockade of Nogo-induced neurite outgrowth inhibition (in words) [4]: does not result in blockade of outgrowth inhibition |
